Measurements published in patent publication US6656471.

Biological target: HLA class I (human)
Assay: cell-based or functional assay

Substance: W6/32, the class I-specific antibody, from hybridoma culture supernatants (ATCC: HB95)
- reduction in HIV-1 envelope-specific CTL activity (PBMCs from LB, E:T 25:1, 1:4 dilution of W6/32 supernatant): 73%
- specific lysis value with W6/32 (E:T 25:1): 6.2%
- specific lysis value without W6/32 (E:T 25:1): 23.2%
